Experimental data: publication PMC12923946 (Cell Reports Medicine, 2026)

B1: RM 5-1 (antibody, V domains shown)
VH: QGQLVQSGPEVKKPGATVKVSCRASAYPFGNYGITWVRQVPGQGLEWVGWISAYTGHTKFPQNFQGRVTLTADTSTSTGYMELRSLTSDDTAVYYCARGPCCSSPRPYDIWGQGTMVTVSS
VL: DIQMTQSPSTLSASVGDRVTITCRASQSIDDWLAWYQHSPGKAPKLLIYRASRLESGVPSRFSGSGSGTEFTLTISSLQPDDFASYYCQQCYTYSQTFGQGTRVEIK
B2: RM 5-1 Fab (Fab, V domains shown)
VH: QGQLVQSGPEVKKPGATVKVSCRASAYPFGNYGITWVRQVPGQGLEWVGWISAYTGHTKFPQNFQGRVTLTADTSTSTGYMELRSLTSDDTAVYYCARGPCCSSPRPYDIWGQGTMVTVSS
VL: DIQMTQSPSTLSASVGDRVTITCRASQSIDDWLAWYQHSPGKAPKLLIYRASRLESGVPSRFSGSGSGTEFTLTISSLQPDDFASYYCQQCYTYSQTFGQGTRVEIK

Legend:
hMPV-F A1(NL/1/00) = hMPV-F A1(NL/1/00) (human metapneumovirus A1, strain NL/1/00, UniProt Q91F55, stabilised); experiment: ELISA
RSV-F A2 (DS-Cav-1) = RSV-F A2 (DS-Cav-1) (Human respiratory syncytial virus A, …, UniProt P03420, stabilised); experiment: ELISA
[1] = biological target: RSV prefusion F trimer (competition assays) (human respiratory syncytial virus A, …, UniProt P03420, stabilised); experiment: ELISA
hMPV F-DS-CavEs2-IPDS = biological target: T1, hMPV F-DS-CavEs2-IPDS (human metapneumovirus (strain not …, N-linked glycan at Asn172 (partially modelled))); experiment: cryo-EM structure
T1 chain: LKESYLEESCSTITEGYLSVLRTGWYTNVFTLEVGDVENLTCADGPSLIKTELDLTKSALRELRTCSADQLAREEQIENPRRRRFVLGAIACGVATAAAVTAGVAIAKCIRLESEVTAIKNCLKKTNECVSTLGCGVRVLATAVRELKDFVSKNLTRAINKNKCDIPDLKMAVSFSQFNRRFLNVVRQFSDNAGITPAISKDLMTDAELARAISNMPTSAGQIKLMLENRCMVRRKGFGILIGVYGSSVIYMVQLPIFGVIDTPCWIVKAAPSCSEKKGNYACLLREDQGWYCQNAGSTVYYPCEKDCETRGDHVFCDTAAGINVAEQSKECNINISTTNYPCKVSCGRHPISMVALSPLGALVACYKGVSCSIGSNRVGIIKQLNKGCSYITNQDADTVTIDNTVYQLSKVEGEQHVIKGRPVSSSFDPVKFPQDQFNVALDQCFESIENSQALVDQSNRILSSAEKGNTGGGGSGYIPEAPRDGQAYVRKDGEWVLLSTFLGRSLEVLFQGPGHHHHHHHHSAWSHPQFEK

Binder	binding result (hMPV-F A1(NL/1/00))	binding result (RSV-F A2 (DS-Cav-1))	binding result [1]	stoichiometry N (hMPV F-DS-CavEs2-IPDS)
B1	binds	binds	binds	–
B2	–	–	–	3 Fabs per trimer
